Results published in patent US20060094101A1 (Pfizer, published 2006).

B1: p53, yeast two-hybrid control bait (other, UniProt P04386 1-147, looked up)
chain: MKLLSSIEQACDICRLKKLKCSKEKPKCAKCLKNNWECRYSPKTKRSPLTRAHLTEVESRLERLEQLFLLIFPREDLDMILKMDSLQDIKALLTGLFVQDNVNKDAVTDRLASVETDMPLTLRQHRISATSSSEESSNKGQRQLTVSPVTETPGPVAPAPATPWPLSSFVPSQKTYQGNYGFHLGFLQSGTAKSVMCTYSPPLNKLFCQLAKTCPVQLWVSATPPAGSRVRAMAIYKKSQHMTEVVRRCPHHERCSDGDGLAPPQHLIRVEGNLYPEYLEDRQTFRHSVVVPYEPPEAGSEYTTIHYKYMCNSSCMGGMNRRPILTIITLEDSSGNLLGRDSFEVRVCACPGRDRRTEEENFRKKEVLCPELPPGSAKRALPTCTSASPPQKKKPLDGEYFTLKIRGRKRFEMFRELNEALELKDAHATEESGDSRAHSSYLKTKKGQSTSRHKKTMVKKVGPDSD
notes: Specificity control bait
B2: Lamin (Clontech), yeast two-hybrid control bait (other, UniProt P04386 1-147, looked up)
chain: MKLLSSIEQACDICRLKKLKCSKEKPKCAKCLKNNWECRYSPKTKRSPLTRAHLTEVESRLERLEQLFLLIFPREDLDMILKMDSLQDIKALLTGLFVQDNVNKDAVTDRLASVETDMPLTLRQHRISATSSSEESSNKGQRQLTVSSEEVVSREVSGIKAAYEAELGDARKTLDSVAKERARLQLELSKVREEFKELKARNTKKEGDLIAAQARLKDLEALLNSKEAALSTALSEKRTLEGELHDLRGQVAKLEAALGEAKKQLQDEMLRRVDAENRLQTMKEELDFQKNIYSEELRETKRRHETRLVEID
notes: Specificity control bait; also called lamin (L)

How the values were obtained:
[1] = target: B2; experiment: yeast two-hybrid, growth and color on selective media
Description: (§1) Independent sequences were transformed into bacteria (DH5 α) from which DNA was subsequently isolated. Next, the DNA was transformed into yeast strain AH109. […] Each independent sequence strain transformed in AH109 was mated with Y187 yeast transformed with each of the three baits. Independent clones which interacted with MK2 and MK2 K93R, but not with empty vector pGBKT7, TPL2, p53, or Lamin, as assayed by their growth on SD/-Ade/-His/-Leu/-Trp and blue color on SD/-Leu/-Trp X-α-GAL, were identified as clones which included DNA inserts encoding specific MK2 interacting proteins (FIG. 9A). […] One protein encoded by an independent DNA sequence characterized was “similar to smoothelin” (STS).

[2] = target: B1; experiment: yeast two-hybrid, growth on SD/-Ade/-His/-Leu/-Trp and blue color on SD/-Leu/-Trp X-α-GAL
Description: as §1

[3] = target: T1, TPL2, yeast two-hybrid control bait (yeast, UniProt P04386 1-147; P41279 1-467, limits assumed); experiment: as above
T1 construct: Specificity control bait
Description: as §1

[4] = target: T2, similar to smoothelin (STS), yeast two-hybrid library clone (yeast; human, UniProt P53814 2-868); experiment: as above
T2 construct: Clone from a pretransformed human bone marrow cDNA library
T2 sequence (P53814 other isoform, or with tags, fused parts or gaps limits assumed): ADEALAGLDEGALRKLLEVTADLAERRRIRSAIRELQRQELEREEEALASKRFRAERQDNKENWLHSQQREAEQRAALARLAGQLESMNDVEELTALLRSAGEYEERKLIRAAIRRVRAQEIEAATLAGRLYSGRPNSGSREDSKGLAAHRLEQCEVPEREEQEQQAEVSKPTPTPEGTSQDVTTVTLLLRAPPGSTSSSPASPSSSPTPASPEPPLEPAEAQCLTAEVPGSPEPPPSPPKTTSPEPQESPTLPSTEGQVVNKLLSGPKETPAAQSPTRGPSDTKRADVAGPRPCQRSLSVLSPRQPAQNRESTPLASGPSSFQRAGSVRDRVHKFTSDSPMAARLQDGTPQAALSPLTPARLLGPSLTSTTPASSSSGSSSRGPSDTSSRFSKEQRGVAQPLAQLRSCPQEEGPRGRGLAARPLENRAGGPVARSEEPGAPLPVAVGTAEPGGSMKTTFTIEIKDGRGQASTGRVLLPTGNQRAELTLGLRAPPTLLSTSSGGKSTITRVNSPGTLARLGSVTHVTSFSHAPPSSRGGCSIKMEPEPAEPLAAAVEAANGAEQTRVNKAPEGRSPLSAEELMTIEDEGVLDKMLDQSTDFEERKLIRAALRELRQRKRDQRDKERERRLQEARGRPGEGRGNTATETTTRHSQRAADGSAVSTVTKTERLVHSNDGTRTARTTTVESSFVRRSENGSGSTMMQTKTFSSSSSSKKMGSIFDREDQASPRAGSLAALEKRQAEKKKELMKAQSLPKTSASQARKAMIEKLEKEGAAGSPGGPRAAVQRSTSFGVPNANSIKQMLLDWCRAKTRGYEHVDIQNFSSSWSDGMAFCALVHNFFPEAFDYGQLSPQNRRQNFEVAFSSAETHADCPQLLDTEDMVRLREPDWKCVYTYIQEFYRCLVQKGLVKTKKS
Description: as §1

[5] = target: T2, similar to smoothelin (STS), yeast …; experiment: yeast two-hybrid, growth and color on selective media
Description: as §1

MYC-tagged MK2 = MYC-tagged MK2 (UniProt P49137 1-400, limits assumed); experiment: cell-based or functional assay
MYC-tagged MK2, sequence (P49137 whole entry): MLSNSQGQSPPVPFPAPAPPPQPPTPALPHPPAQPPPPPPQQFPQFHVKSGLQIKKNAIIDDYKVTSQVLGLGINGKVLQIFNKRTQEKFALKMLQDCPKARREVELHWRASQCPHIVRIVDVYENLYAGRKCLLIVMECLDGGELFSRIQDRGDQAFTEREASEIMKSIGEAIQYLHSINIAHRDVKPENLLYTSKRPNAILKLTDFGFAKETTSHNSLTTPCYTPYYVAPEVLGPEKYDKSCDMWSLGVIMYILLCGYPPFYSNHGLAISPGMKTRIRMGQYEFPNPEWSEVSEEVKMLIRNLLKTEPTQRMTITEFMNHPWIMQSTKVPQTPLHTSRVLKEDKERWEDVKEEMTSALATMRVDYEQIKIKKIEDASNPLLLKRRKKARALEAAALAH

| Binder | binding result [1] | binding result [2] | binding result [3] | other results |
| --- | --- | --- | --- | --- |
| human polyhomeotic 2 (HPH2), yeast two-hybrid library clone (other, not shown: large carriers, Clone from a pretransformed human bone marrow cDNA library; also called human polyhomeotic homolog 2) MCLRGGCSPRAPAAAPQPRPPPALPPRPRAPVPASRPGRPLLTPARPCGRMRRGSPGPRLGGSRGERRRPAGRDPARVGPGQGLRRPARPGPAAWTETGQGIVHALTDLSIPGMTSGNGNSASSIAGTAPQNGENKPPQAIVKPQILTHVIEGFVIQEGADVSRWDARLLVGNLKKKYAQGFLPEKLPQQDHTTTTDSEMEEPYLQESKEEGAPLKLKCELCGRVDFAYKFKRSKRFCSMACAKRYNVGCTKRVGLFHSDRSKLQKAGAATHNRRRPAKPVCHHLPRIPRSSQQALCPFRLLLLCVTHSQEDSSRCSDNSSYEEPLSPISASSSTSAGDKASGTWSSPTCICGTWWAWDTTSCQVSHQVNVEDVYEFIRSLPGCQEIAEEFRAQEIDGQALLLLKEDHLMSVMNIKLGPALKIYARISMLKDS | no binding | no binding | no binding |  |
| B1 |  |  |  | binding result [4]: no binding |
| B2 |  |  |  | binding result [5]: no binding |
| V5-tagged Shc (V5-p66 Shc A) (other, not shown: small tags and cut ends) MDLLPPKPKYNPLRNESLSSLEEGASGSTPPEELPSPSASSLGPILPPLPGDDSPLPCVPSFPRMSNLKLANPAGGPWGLKGSQERLLKMGKGVQGQPFGLRPLAPPPDMNKLSGGGGRRTRVEGGQLGGEEWTRHGSFVNKPTRGWLHPNDKVMGPGVSYLVRYMGCVEVLQSMRALDFNTRTQVTREAISLVCEAVPGAKGATRRRKPCSRPLSSILGRSNLKFAGMPITLTVSTSSLNLMAADCKQIIANHHMQSISFASGGDPDTAEYVAYVAKDPVNQRACHILECPEGLAQDVISTIGQAFELRFKQYLRNPPKLVTPHDRMAGFDGSAWDEEEEEPPDHQYYNDFPGKEPPLGGVVDMRLREGAARPTLPSAQMSSHLGATLPIGQHAAGDHEVRKQMLPPPPCPGRELFDDPSYVNIQNLDKARQAGGGAGPPNPSLNGSAPRDLFDMKPFEDALRVPPPPQSMSMAEQLQGEPWFHGKLSRREAEALLQLNGDFLVRESTTTPGQYVLTGLQSGQPKHLLLVDPEGVVRTKDHRFESVSHLISYHMDNHLPIISAGSELCLQQPVDRKV |  |  |  | TNF-α biosynthesis (secreted TNF-α by ELISA) in LPS-stimulated RAW264.7 cells (MYC-tagged MK2): 1.5 fold; basal pHsp 27 levels in HeLa cells (immunoblot, densitometry) (MYC-tagged MK2): 3 fold |
| src homology and collagen (Shc; Shc A), yeast two-hybrid library clone (other, not shown: large carriers, Clone from a pretransformed human bone marrow cDNA library) MDLLPPKPKYNPLRNESLSSLEEGASGSTPPEELPSPSASSLGPILPPLPGDDSPLPCVPSFPRMSNLKLANPAGGPWGLKGSQERLLKMGKGVQGQPFGLRPLAPPPDMNKLSGGGGRRTRVEGGQLGGEEWTRHGSFVNKPTRGWLHPNDKVMGPGVSYLVRYMGCVEVLQSMRALDFNTRTQVTREAISLVCEAVPGAKGATRRRKPCSRPLSSILGRSNLKFAGMPITLTVSTSSLNLMAADCKQIIANHHMQSISFASGGDPDTAEYVAYVAKDPVNQRACHILECPEGLAQDVISTIGQAFELRFKQYLRNPPKLVTPHDRMAGFDGSAWDEEEEEPPDHQYYNDFPGKEPPLGGVVDMRLREGAARPTLPSAQMSSHLGATLPIGQHAAGDHEVRKQMLPPPPCPGRELFDDPSYVNIQNLDKARQAGGGAGPPNPSLNGSAPRDLFDMKPFEDALRVPPPPQSMSMAEQLQGEPWFHGKLSRREAEALLQLNGDFLVRESTTTPGQYVLTGLQSGQPKHLLLVDPEGVVRTKDHRFESVSHLISYHMDNHLPIISAGSELCLQQPVDRKV | no binding | no binding | no binding |  |
